Assay: yeast display, Sf9 membrane polyspecificity reagent, FACS + sequencing; frameworks hold sequencing errors
Summary of the method: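 Polyreactivity labels are assigned by the sorting gate from which each nanobody was recovered. The gates were low and high (top ~1%), set on anti-HA fluorescence for expression and streptavidin fluorescence for reagent binding. Before sorting, galactose-induced (36–48 hours) yeast display cells were stained for 1 hour at 4 °C with 10% biotinylated, detergent-solubilized Sf9 membrane reagent.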

Row | Sequence | polyreactivity (PSR sort gate)
1 | QVQLVESGGGLVQAGGSLRLSCAASGSTFVGYAMGWYRQAPGKERELVAAITTDGGSTYYADSVKVRFTISRDNAKNTVYLQMNSLKPEDTAVYYCAADHRVYPRDDWDSPDEFGYWGQGTQVTVSS | low polyreactivity
2 | QVQLVESGGGLVQAGGSLRLSCAASGSTFVGYAMGWYRQAPGKERELVADIDSIGGSTYYADSVKGRFTISRDNAKNTVYLQMNSLKPEDTAVYYCAARRFDTALVLYDYWGQGTQVTVSS | low polyreactivity
3 | QVQLVESGGGLVQAGGSLRLSCAASGSTFVGYAMGWYRQAPGKERELVAGITASGTNTYYADSVKGRFTISRDNAKNTVYLQMNSLKPEDTAVYYCAAESNRRFEGEYWGQGTQVTVSS | high polyreactivity
4 | QVQLVESGGGLVQAGGSLRLSCAASGSTFVGYAMGWYRQAPGKERELVAHISYSGGSTYYADSVKGRFTISCDNAKNTVYLQMNSLKPEDTAVYYCAAEWSRHYYYAPRYDYWGQGTQVTVSS | low polyreactivity
5 | QVQLVESGGGLVQAGGSLRLSCAASGSTFVGYAMRGYRQAPGKERELVADIDSIGGSTYYADSVKGRFTISRDNAKNTVYLQMNSLKPEDTAVYYCAARRFDTALVLYDYWGQGTQVTVSS | low polyreactivity
6 | QVQLVESGGGLVQAGGSLRLSCAASGSTFVHYAMGWYRQAPGKERELVAAITWSGGSTYYADSVKGRFTISRDNAKNTVYLPMNSLKPEDTAVYYCAARNFGAWRWYSYGAHLGSEYWGQGTQVTVSS | low polyreactivity
7 | QVQLVESGGGLVQAGGSLRLSCAASGSTFVINAMGWYRQAPGKERELVADIDYRGGSTNYADSVKGRFTISRDNAKNTVYLQMNSLKPEDTAVYYCNKRYVIRRRGYDYWGQGTQVTVSS | low polyreactivity
8 | QVQLVESGGGLVQAGGSLRLSCAASGSTFVIYAMGWYRQAPGKERELVAAITISGGRTYYADSVKGRFTISRDKAKNTVYLQMNSLKPEDTAVYYCAATVVSTYPYGYGSSFVRDDYWGQGTQVTVSS | low polyreactivity
9 | QVQLVESGGGLVQAGGSLRLSCAASGSTFVIYDMGWYRQAPGKERELVAAISYSGGSTYYADSVKGRFTISRDNAKNTVYLQMNSLKPEDTAVYYCNAGVLVLLYAYLPSEQEYWGQGTQVTVSS | low polyreactivity
10 | QVQLVESGGGLVQAGGSLRLSCAASGSTFVIYTMGWYRQAPVKERELVAAISWSGGITRYADSVKGRFTISRDNAKNTVYLQMNSLKPEDTAVYYCNASQWPSRFDYWGQGTQVTVSS | low polyreactivity
11 | QVQLVESGGGLVQAGGSLRLSCAASGSTFVKYAMGWYRQAPGKERELVARISSSGGSTYYADSVKGRFTISRDNAKNTVYLQMNSLKPEDTAVYYCAAPSLIAKYDYWGQGTQVTVSS | high polyreactivity
12 | QVQLVESGGGLVQAGGSLRLSCAASGSTFVLNAMGWYRQAPGKERELVAAINLDSGNTNYADSVKGRFTISRDNAKYTVYLQMNSLKPEDTAVYYCNTDVKFGGTAYDYWGQGTQVTVSS | low polyreactivity
13 | QVQLVESGGGLVQAGGSLRLSCAASGSTFVLNAMGWYRQSPGKERQLVAGISYGTGSTYYADSVKGRITISRDNAKNTVYLQMNSLKPEDTAVYFCAADNWAVNAYYWYIYDYWGQGTQVTVSS | low polyreactivity
14 | QVQLVESGGGLVQAGGSLRLSCAASGSTFVNNAMGWYIQAPGKERELVAAIRSSDGRTYYADSVKGRFTISRDNAKNTVYLQMNSLKPEDTAVYYCATAVGTKYRTRIFEYYYWGQGTQVTVSS | high polyreactivity
15 | QVQLVESGGGLVQAGGSLRLSCAASGSTFVNYAMVWYRQAPGKERELVAAITRGGYTYYADSVKGRFTISRDNAKNTVYLEMNSLKPEDTAFYYCNAAVSYPKYPYVSPGVPSYDYWGQGTQVSVSS | low polyreactivity
16 | QVQLVESGGGLVQAGGSLRLSCAASGSTFVPYAMGWYRPAPGKERELVAGITFSGGSTYYADSVKGRFTISRDNAKNTVYLQMNSLKPEDTAVYYCAAGGWRGHYYWGQGTQVTVSS | high polyreactivity
17 | QVQLVESGGGLVQAGGSLRLSCAASGSTFVPYTMGWYRQAPGKERELVAAISGSGGTDYADSVKGRFTISRDNAKNTVYLQMNSLKPEDTAVYYCATDGLDFWFIYDYWGQGTQVTVSS | low polyreactivity
18 | QVQLVESGGGLVQAGGSLRLSCAASGSTFVPYTMGWYRQAPGKERELVAVITSGGSTNYADSVKGRFTISRDNAKNTVYLQMNSLKPEDTAVYYCAAYGGTHYTYRYDYWGQGTQVTVSS | high polyreactivity
19 | QVQLVESGGGLVQAGGSLRLSCAASGSTFVPYVMGWYRQAPGKERELVAAISKSGTSTYYADSVKGRFTISRDNAKNTDYLQMNSLKPEDTAVYYCAAVARRQVPYDYWGQGTQVTVSS | high polyreactivity
20 | QVQLVESGGGLVQAGGSLRLSCAASGSTFVQNDMGWYIPAPGKERELVAAISRTGGSTYYADSVKGRFTISRDNAKNTVYLQMNSLKPEDTAVYYCARRYYYQYRYDYWGQGTQVTVSS | high polyreactivity
21 | QVQLVESGGGLVQAGGSLRLSCAASGSTFVQYAMGWYRQAPGKERELVAAITRSGGSTYYADSVKGRFTISRDNAKNTVYLQMNSLKPEDTAVYYCAARHYRSRDGYWGQGTQVTVSS | high polyreactivity
22 | QVQLVESGGGLVQAGGSLRLSCAASGSTFVRNAMGWYRQAPGKERELVAAIRWRSGSTYYADSVKGRFTISRDNAKNTVYLQMNSLKPEDTAVYYCAVDYNSFRYGPLGYWGQGTQVTVSS | high polyreactivity

Row | Sequence | polyreactivity (PSR sort gate)
23 | QVQLVESGGGLVQAGGSLRLSCAASGSTFVRNAMGWYRQAPGKERELVAAISNVGSTYYADSVKGRFTISRDNAKNTVYLQMNSLKPEDTAVYYGTKQLWYHKFNYWGQGTQVTVSS | low polyreactivity
24 | QVQLVESGGGLVQAGGSLRLSCAASGSTFVRNAMGWYRQAPGKERELVAAITSSGGSTYYADSVKGRFTISRDNAKNTVYLQMNSLKPVDTAVYYCNARVPPQGWGPWKAFDYWGQGTQVTVSS | low polyreactivity
25 | QVQLVESGGGLVQAGGSLRLSCAASGSTFVRYAMGWYRQAPGKEREFVASITCRGGSTYYADSVKGRFTITRDNAKNTVYLQMNSLKPEDTAVYYCAARGREWYYWGQGTQVTVSS | high polyreactivity
26 | QVQLVESGGGLVQAGGSLRLSCAASGSTFVSNAMGWYRQAPGKERELVARITGSGGNTYYADSVKGRFTISRDNAKNTVYLQMNSLKPEDTAVYYCNADVFRKFGSPSAYKSHRYDYWGQGTQVTVSS | low polyreactivity
27 | QVQLVESGGGLVQAGGSLRLSCAASGSTFVSNTMGWYRQAPGKERELVAAITWTGGRTYYADSVKGRFTISRDNAKNTVYLQMNSLKPEDTAVYYCAAVGTRKMYYWGQGTQVTVSS | high polyreactivity
28 | QVQLVESGGGLVQAGGSLRLSCAASGSTFVTNAMGWYRQAPGKEREFVAAISNSSGSTYYADSVKGRFTISRDNAKNTVYLQMNSLKPEDTAVYYCIATPDDWLQEDYWGQGTQVTVSS | low polyreactivity
29 | QVQLVESGGGLVQAGGSLRLSCAASGSTFVTNGMGWYRQEPGKERELVAAISGNVGSTYYADSVKGRFTISRDNEKNTVYLQMNSLKPEDTAVYYCAARQYRPSDYDYWGQGTQVTVSS | low polyreactivity
30 | QVQLVESGGGLVQAGGSLRLSCAASGSTFVTNVMGWYRQATGKERELVAAISYSGGNTYYEDSVKGRFTISRDNAKNTVYLQMNSLKPEDTAVYYCAAKYRRWGMEYWGQGTQVTVSS | high polyreactivity
31 | QVQLVESGGGLVQAGGSLRLSCAASGSTFVTYAMGRYRQAPGKERELVAAISSAGSTNYADSVKGRFTISRDNAKNTVYLQMNSLKPEDTAVYYCARDIQDTYEFDYWGQGTQVTVSS | low polyreactivity
32 | QVQLVESGGGLVQAGGSLRLSCAASGSTFVTYTMGWYRQAPGKEREFVATISRSGCSTYYADSVKGRFTISRDNAKNTVYLQMNSLKPEDTAVYYCAAVRLVISKYWYIPYDYWGQGTQVTVSS | low polyreactivity
33 | QVQLVESGGGLVQAGGSLRLSCAASGSTFVVNAMGWYRQAPGKERELVAAITQSGGSTFYADSVKGRFTISRDNAKNTVYLQMNSLKPEDTAVYYWGLGTQVTVSS | low polyreactivity
34 | QVQLVESGGGLVQAGGSLRLSCAASGSTFVVNAMVWYRQAPGKERELVAAITQDGDGTYYADSVKGRFTISRDNAKNTVYLQMNSLKPEDTAVYYCAAYPFYGPYDEFDYWGQGTQVTVSS | low polyreactivity
35 | QVQLVESGGGLVQAGGSLRLSCAASGSTFVVYAMGWYRQAPGKEREFVAAITYRGGRTYYADSVKGRFTISRDNAKNTVYLQMNSLKPEDTAVYYCNAPIVRSGYVRSIPAVYYSYYYWGQGTQVTVSS | high polyreactivity
36 | QVQLVESGGGLVQAGGSLRLSCAASGSTFVWNAMGWYRQAPGKERELVAAITNDGRTNYADSVKGRFTISRDNAKNTVYLQMNSLKPEDTAVYYCNADGFNSYWWNYYWGQGTQVTVSS | low polyreactivity
37 | QVQLVESGGGLVQAGGSLRLSCAASGSTFVWNAMGWYRQAPGKERELVATITLSTGSTYYADSVKGRFTISRDNAKNTVYLQMNSLKPEDTAVYYCNTEIYVDIISDYGYWGQGTQVTVSS | low polyreactivity
38 | QVQLVESGGGLVQAGGSLRLSCAASGSTFVYAMVWYRPAPGKERELVAAITTGDSTYYADSVKGRFTISRDNAKNTVYLQMNSLKPEDTAVYYCAAQWYTRDGEYGYWGQGTQVTVSS | low polyreactivity
39 | QVQLVESGGGLVQAGGSLRLSCAASGSTFVYNAMGWYRQAPGKERELVAAISRGGGITYYADSVKGRFTISRDNAKNTVYLQMNSLKPEDTAVYYCNKSRYKSYSYDYWGQGTQVTVSS | high polyreactivity
40 | QVQLVESGGGLVQAGGSLRLSCAASGSTFVYNDMGWYRQAPGKEREFVAAITYSGSTYYADSVNGRFTISRDNAKNTVYLQMNSLKPEDTAVYYCNADPRRPVTSYDYWGQGTQVTVSS | low polyreactivity
41 | QVQLVESGGGLVQAGGSLRLSCAASGSTFVYYAMGRYRQAPGKERELVAAITASGGGTYYADSVKGRFTISRDNAKNTVYLQMNSLKPEDTAVYYCNRGYDYWGQGTQVTVSS | low polyreactivity
42 | QVQLVESGGGLVQAGGSLRLSCAASGSTFVYYAMGWSRQAPGKERELVASIRTGGTTNYADSVKGRFTISRDNAKNTVYLQMNSLKPEDTAVYYCNKDTRPTDTTVSLYYWSAWRDYWGQGTQVTVSS | low polyreactivity
43 | QVQLVESGGGLVQAGGSLRLSCAASGSTFVYYAMGWYIQAPGKEREFVAGISRSGGSTYYADSVKGRFTISRDNAMNTVYLQMNSLKPEDTAVYSCNASGGLPKYGYWGQGTQVTVSS | high polyreactivity

Source: the nanobody polyreactivity screen of Harvey et al. (2022)
